These are literature values, as cited in patent publication US20250320497A1, “COMPOSITIONS AND METHODS FOR TREATING HEPATITIS B VIRUS (HBV) INFECTION AND HBV-ASSOCIATED DISEASES” (priority 2022, published 2025).

This data set has as its system chronic HBV infection. Conditions: Phase 1, patients with chronic HBV infection.

B1: GC 1102: fully human anti-HBsAg mAb in development for chronic HBV infection (antibody, chains of the INN, looked up, V domains shown)
VH: EVQLVESGGGLVKPGGSLRLSCSASGFSLTKYKMTWVRQAPGKGLEWVSSISSTSRDIDYADSVKGRFTISRDNAKNSLFLQMSSLRVDDTAVYYCTRDGWLWGWDVRSNYYYNALDVWGQGTTVTVSS
VL: DIVVTQSPSSLSASVGDRVTITCRASQGIYNSIAWYQQKPGKAPKLLLYSTSTLLSGVPSRFSGSGSGTDYTLTITNLQPEDFATYYCQQYFVTPETFGQGTKLEIK
On to B1, for which the “lowering of HBsAg” value is on record as 2-3 log10 IU/mL and the tolerability entry is given as “well tolerated”.
